Assay results: the supplement of paper PMC7125110
± gives the standard error. For some of these results: This sample holds only a part of the variants without activity.

B1: glmS ribozyme (parent)
chain: AUAAAAGCGCCAGAACUACAGAAAUGUAGUUGACGAGGAGGAGGUUUAUCGAAUUUUCGGCGGAUGCCUCCAAA

Experiments:
Conditions in all cases: with glucosamine-6-phosphate
glucosamine-6-phosphate [1] = variants of: B1; experiment: kcat; higher = faster cleavage; RNA array
Procedure, shortened: (§1)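 Glucosamine-6-phosphate in HEPES/KCl/Mg(OAc)2 buffer, at 40 μM to 10 mM, was flowed over barcoded ribozyme variants transcribed in situ by E. coli RNA polymerase on sequenced MiSeq chips. Tracking was through a hybridised Cy3 probe at 37 °C. kobs, kcat and KM came from exponential decay fits and weighted Michaelis–Menten fits of normalised per-tile medians.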

glucosamine-6-phosphate [2] = variants of: B1; experiment: KM; higher = weaker cofactor use; RNA array
Procedure, shortened: as §1

glucosamine-6-phosphate [3] = variants of: B1; experiment: self-cleavage kobs at 40 uM GlcN6P; higher = faster cleavage; RNA array
Procedure, shortened: as §1

glucosamine-6-phosphate [4] = variants of: B1; experiment: self-cleavage kobs at 160 uM GlcN6P; higher = faster cleavage; RNA array
Procedure, shortened: as §1

glucosamine-6-phosphate [5] = variants of: B1; experiment: self-cleavage kobs at 640 uM GlcN6P; higher = faster cleavage; RNA array
Procedure, shortened: as §1

glucosamine-6-phosphate [6] = variants of: B1; experiment: self-cleavage kobs at 2500 uM GlcN6P; higher = faster cleavage; RNA array
Procedure, shortened: as §1

glucosamine-6-phosphate [7] = variants of: B1; experiment: self-cleavage kobs at 10000 uM GlcN6P; higher = faster cleavage; RNA array
Procedure, shortened: as §1

Variant | kcat (glucosamine-6-phosphate [1]) | KM (glucosamine-6-phosphate [2]) | self-cleavage kobs at 40 uM GlcN6P (glucosamine-6-phosphate [3]) | self-cleavage kobs at 160 uM GlcN6P (glucosamine-6-phosphate [4]) | self-cleavage kobs at 640 uM GlcN6P (glucosamine-6-phosphate [5]) | self-cleavage kobs at 2500 uM GlcN6P (glucosamine-6-phosphate [6]) | self-cleavage kobs at 10000 uM GlcN6P (glucosamine-6-phosphate [7])
AUAAAAGCGCCAGAACUACAGAAAUGUAGUCGACGAGGAGGAGGUUUAUCGUAUUUUCGGCGUAUGCCGCCAAA | 1.91e-05 ± 1.4e-06 s⁻¹ | – | – | – | – | – | –
AUAAAAGCGCCAGAACUACAGAAAUGUAGUCGACGAGGAGGGGGUUUAUCGAAUUUUCGGCGGAUGCCUCCAAA | 0.00894 ± 0.0011 s⁻¹ | 2260 ± 400 µM | 0.000166 ± 2.9e-05 s⁻¹ | 0.000469 ± 0.00016 s⁻¹ | 0.00212 ± 0.00035 s⁻¹ | 0.00407 ± 0.0011 s⁻¹ | 0.00754 ± 0.0012 s⁻¹
AUAAAAGCGCCAGAACUACAGAAAUGUAGUCGACGAGGAGGAGGUUUAUCGAAUUUUCGGCGGAUGACUCCAAA | 0.00103 ± 0.00015 s⁻¹ | 1970 ± 540 µM | 2.9e-05 ± 6.9e-06 s⁻¹ | 5.29e-05 ± 2.2e-05 s⁻¹ | 0.000244 ± 5.6e-05 s⁻¹ | 0.000603 ± 0.00011 s⁻¹ | 0.000857 ± 0.0001 s⁻¹
AUAAAAGCGCCAGAACUACAGAAAUGUAGUCUACGAGGAGGAGGUUUAUCGAAUUUUCGGCGGAUGCCUCCAAA | 0.000799 ± 8e-05 s⁻¹ | 4030 ± 600 µM | – | 3.53e-05 ± 8.1e-06 s⁻¹ | 0.000112 ± 9.6e-06 s⁻¹ | 0.000281 ± 2.9e-05 s⁻¹ | 0.000594 ± 5.8e-05 s⁻¹
AUAAAAGCGCCAGAACUACAGAAAUGUAGUCAACGAGGAGGAGGUUUAUCGAAUUUUCGGCGGAUGCCUCCAAA | 0.0022 ± 0.00058 s⁻¹ | 6580 ± 2400 µM | 4.27e-05 ± 1.5e-05 s⁻¹ | 6.8e-05 ± 1.3e-05 s⁻¹ | 0.000179 ± 2.1e-05 s⁻¹ | 0.000604 ± 7.5e-05 s⁻¹ | 0.00134 ± 0.00014 s⁻¹
AUAAAAGCGCCAGAACUACAGAAAUGUAGUCGACGAGGAGGAGGUUUAUCGUAUUUUCGGCGGAUGCCUCCAAA | 7.02e-05 ± 1.4e-05 s⁻¹ | – | – | – | – | 5.04e-05 ± 6e-06 s⁻¹ | 5.66e-05 ± 7.1e-06 s⁻¹
AUAAAAGCGCCAGAACUACAGAAAUGUAGUCGACGAGGAGGAGGUUUAUCGAAUUUUCGGCGGAUGCCUCGAAA | 0.000382 ± 8.8e-05 s⁻¹ | 1970 ± 890 µM | – | – | 9.1e-05 ± 1.5e-05 s⁻¹ | 0.000213 ± 3.5e-05 s⁻¹ | 0.000321 ± 4.9e-05 s⁻¹
AUAAAAGCGCCAGAACUACAGAAAUGUAGUCGACGAGGAGGAGGUUUAUCGAAUUUUCGGCGGAUGCCUGCAAA | 5.96e-05 ± 8.1e-06 s⁻¹ | – | – | – | 3.34e-05 ± 7.2e-06 s⁻¹ | 6.15e-05 ± 7.8e-06 s⁻¹ | 4.89e-05 ± 8.3e-06 s⁻¹
